Experiments:
[1] = molecular target: NPF motif peptide of DONSON (residues 71-88); experiment: native holdup (nHU) titration with dot blot; DONSON_71-88-saturated streptavidin resin mixed with control resin at various proportions; extracts of HEK293T cells expressing HA-tagged POLE2 variants; 4 °C, 2 h; depletion quantified with an antibody against the HA tag; apparent
[2] = molecular target: non-catalytic subunit of DNA polymerase ε (POLE2), endogenous (human (endogenous in Jurkat)) (UniProt P56282); experiment: native holdup (nHU) with mass spectrometry; estimate from the difference between the depletion of POLE and of POLE2 by the same NPF motif bait, with about 1 nM of each assumed in the extract; apparent
non-catalytic subunit of DNA polymerase ε (POLE2), endogenous (human (endogenous in Jurkat)), sequence (P56282 whole entry): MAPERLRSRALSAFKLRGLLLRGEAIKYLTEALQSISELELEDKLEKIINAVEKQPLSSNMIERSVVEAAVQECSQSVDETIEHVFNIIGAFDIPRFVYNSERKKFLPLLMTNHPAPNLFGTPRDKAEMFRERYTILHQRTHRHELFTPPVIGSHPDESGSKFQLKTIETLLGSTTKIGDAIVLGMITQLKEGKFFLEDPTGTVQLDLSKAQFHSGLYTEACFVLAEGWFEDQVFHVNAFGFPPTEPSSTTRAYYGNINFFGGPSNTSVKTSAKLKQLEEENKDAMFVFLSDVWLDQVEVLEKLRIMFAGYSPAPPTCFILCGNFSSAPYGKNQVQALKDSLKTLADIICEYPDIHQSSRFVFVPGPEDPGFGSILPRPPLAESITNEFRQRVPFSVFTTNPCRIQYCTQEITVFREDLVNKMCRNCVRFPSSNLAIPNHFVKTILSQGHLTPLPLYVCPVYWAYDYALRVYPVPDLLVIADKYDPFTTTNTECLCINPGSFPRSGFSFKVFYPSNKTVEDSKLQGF

HA-MBP-POLE2, sequence (P56282 whole entry): as above
catalytic subunit of DNA polymerase ε (POLE), endogenous, sequence (Q07864 whole entry): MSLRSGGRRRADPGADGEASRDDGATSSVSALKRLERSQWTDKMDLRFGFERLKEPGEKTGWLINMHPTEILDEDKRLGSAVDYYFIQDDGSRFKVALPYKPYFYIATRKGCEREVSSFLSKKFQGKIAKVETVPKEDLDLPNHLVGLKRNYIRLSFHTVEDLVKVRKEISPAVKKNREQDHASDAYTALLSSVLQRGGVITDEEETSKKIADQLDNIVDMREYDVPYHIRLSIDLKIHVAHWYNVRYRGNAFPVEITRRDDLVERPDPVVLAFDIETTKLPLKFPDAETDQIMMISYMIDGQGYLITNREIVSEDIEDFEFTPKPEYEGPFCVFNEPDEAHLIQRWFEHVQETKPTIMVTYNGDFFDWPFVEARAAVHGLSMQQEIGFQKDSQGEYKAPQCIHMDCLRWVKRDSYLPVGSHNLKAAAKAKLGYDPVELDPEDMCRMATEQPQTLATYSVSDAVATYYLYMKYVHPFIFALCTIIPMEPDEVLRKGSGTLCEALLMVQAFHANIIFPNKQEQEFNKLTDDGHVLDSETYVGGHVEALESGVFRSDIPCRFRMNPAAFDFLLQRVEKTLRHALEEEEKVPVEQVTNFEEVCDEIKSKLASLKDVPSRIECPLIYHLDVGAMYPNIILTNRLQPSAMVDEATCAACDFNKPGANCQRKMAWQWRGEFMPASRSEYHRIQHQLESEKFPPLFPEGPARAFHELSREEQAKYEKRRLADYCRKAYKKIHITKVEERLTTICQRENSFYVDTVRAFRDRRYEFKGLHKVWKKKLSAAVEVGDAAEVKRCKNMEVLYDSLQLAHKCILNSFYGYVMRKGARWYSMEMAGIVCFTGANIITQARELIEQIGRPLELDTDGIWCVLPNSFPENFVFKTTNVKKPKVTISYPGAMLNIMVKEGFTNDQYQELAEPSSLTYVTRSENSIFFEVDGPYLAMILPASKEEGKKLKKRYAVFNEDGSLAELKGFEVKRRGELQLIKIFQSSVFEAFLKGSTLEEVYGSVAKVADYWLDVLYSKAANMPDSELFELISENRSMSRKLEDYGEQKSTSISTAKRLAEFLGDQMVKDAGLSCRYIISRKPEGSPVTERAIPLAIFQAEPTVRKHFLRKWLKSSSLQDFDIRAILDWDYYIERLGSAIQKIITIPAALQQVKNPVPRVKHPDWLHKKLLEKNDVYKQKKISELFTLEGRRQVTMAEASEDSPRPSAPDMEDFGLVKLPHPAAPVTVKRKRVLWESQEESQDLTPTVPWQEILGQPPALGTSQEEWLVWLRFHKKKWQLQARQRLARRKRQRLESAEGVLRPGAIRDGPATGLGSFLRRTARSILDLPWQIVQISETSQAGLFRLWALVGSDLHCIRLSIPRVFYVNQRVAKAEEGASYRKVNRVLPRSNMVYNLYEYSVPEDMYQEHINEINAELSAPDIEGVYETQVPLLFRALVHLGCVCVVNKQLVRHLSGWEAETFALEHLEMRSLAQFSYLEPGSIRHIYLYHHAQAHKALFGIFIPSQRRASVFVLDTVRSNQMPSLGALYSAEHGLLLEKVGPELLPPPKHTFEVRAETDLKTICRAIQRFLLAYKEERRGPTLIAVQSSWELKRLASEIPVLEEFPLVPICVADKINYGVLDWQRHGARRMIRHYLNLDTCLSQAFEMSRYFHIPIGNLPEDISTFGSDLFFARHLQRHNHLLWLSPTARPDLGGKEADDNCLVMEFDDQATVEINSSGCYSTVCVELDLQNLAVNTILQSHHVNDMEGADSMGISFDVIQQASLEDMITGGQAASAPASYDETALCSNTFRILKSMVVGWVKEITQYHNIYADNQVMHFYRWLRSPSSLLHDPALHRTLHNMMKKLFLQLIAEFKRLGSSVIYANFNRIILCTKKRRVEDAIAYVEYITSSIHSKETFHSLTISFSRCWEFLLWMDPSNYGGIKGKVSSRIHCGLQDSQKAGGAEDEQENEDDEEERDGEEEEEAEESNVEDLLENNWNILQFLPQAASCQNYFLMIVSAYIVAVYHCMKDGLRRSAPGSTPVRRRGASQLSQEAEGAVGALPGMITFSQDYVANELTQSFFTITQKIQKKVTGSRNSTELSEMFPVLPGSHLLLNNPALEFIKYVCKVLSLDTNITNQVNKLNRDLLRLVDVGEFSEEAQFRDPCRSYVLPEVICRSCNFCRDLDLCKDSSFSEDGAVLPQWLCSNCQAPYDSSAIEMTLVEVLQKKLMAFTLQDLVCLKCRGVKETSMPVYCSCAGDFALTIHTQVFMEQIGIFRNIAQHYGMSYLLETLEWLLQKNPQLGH

| fold weaker binding than HA-POLE2 [1] | Kd [2] | Substance |
| --- | --- | --- |
| 10 fold |  | HA-MBP-POLE2 (from UniProt P56282 1-527) (natural protein) |
|  | 0.1 to 0.3 nM | catalytic subunit of DNA polymerase ε (POLE), endogenous (from UniProt Q07864 1-2286) (natural protein) |

Source: paper PMC12808100, “The non-catalytic DNA polymerase ε subunit is an NPF motif recognition protein” (Nature Communications, 2025)
